Measurements published in the supplement of paper PMC9112550, “Optimization of the antimicrobial peptide Bac7 by deep mutational scanning” (BMC Biology, 2022).

System: Escherichia coli TOP10
Experiment: shrunken log2 fold change of peptide-encoding DNA abundance (4.5 h post-induction vs induction); higher = less antimicrobial activity (less host growth inhibition)
Conditions: time post-induction: 4.5 h; library: site-saturation at positions 5, 18, 19, 20
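Also: peptides expressed intracellularly from a pBAD plasmid library in pooled LB shake-flask culture, induced with 0.3% L-arabinose, DNA abundance read by NGS, three biological replicates, DESeq2 with apeglm shrinkage.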

| Sequence | shrunken log2 fold change |
| --- | --- |
| RRIRGRPPRLPRPRPRPISMPRP | -0.0173 |
| RRIRYRPPRLPRPRPRPFIVPRP | -0.173 |
| RRIRGRPPRLPRPRPRPQQSPRP | 0.465 |
| RRIRARPPRLPRPRPRPQNCPRP | -0.19 |
| RRIRIRPPRLPRPRPRPHGEPRP | -0.178 |
| RRIRYRPPRLPRPRPRPGTQPRP | -0.141 |
| RRIRTRPPRLPRPRPRPHIPPRP | -0.769 |
| RRIRDRPPRLPRPRPRPRWGPRP | 0.471 |
| RRIRKRPPRLPRPRPRPCFHPRP | -0.125 |
| RRIRRRPPRLPRPRPRPMETPRP | -0.12 |
| RRIRMRPPRLPRPRPRPFKHPRP | -0.306 |
| RRIRLRPPRLPRPRPRPKTGPRP | 0.25 |
| RRIRLRPPRLPRPRPRPQDTPRP | -0.409 |
| RRIRVRPPRLPRPRPRPPCNPRP | -0.356 |
| RRIRPRPPRLPRPRPRPLFAPRP | 0.206 |
| RRIRHRPPRLPRPRPRPPWNPRP | -0.0664 |
| RRIRIRPPRLPRPRPRPQPYPRP | -0.84 |
| RRIRERPPRLPRPRPRPNGWPRP | -0.00266 |
| RRIRFRPPRLPRPRPRPDQWPRP | -0.125 |
| RRIRYRPPRLPRPRPRPPYVPRP | -0.266 |

| Sequence | shrunken log2 fold change |
| --- | --- |
| RRIRWRPPRLPRPRPRPLEPPRP | 0.676 |
| RRIRHRPPRLPRPRPRPDIPPRP | -0.193 |
| RRIRVRPPRLPRPRPRPVHEPRP | -0.104 |
| RRIRQRPPRLPRPRPRPSVPPRP | -0.0859 |
| RRIRFRPPRLPRPRPRPSGHPRP | -0.212 |
| RRIRCRPPRLPRPRPRPPPGPRP | 1.47 |
| RRIRHRPPRLPRPRPRPAPWPRP | 0.0941 |
| RRIRCRPPRLPRPRPRPSVRPRP | -0.362 |
| RRIRFRPPRLPRPRPRPTYIPRP | -0.434 |
| RRIRARPPRLPRPRPRPEMVPRP | 0.00546 |
| RRIRVRPPRLPRPRPRPVKTPRP | -0.11 |
| RRIRCRPPRLPRPRPRPLCGPRP | -0.0842 |
| RRIRMRPPRLPRPRPRPCCCPRP | 0.0604 |
| RRIRTRPPRLPRPRPRPIRHPRP | -0.438 |
| RRIRRRPPRLPRPRPRPPPLPRP | 0.963 |
| RRIRSRPPRLPRPRPRPIVYPRP | -0.255 |
| RRIRGRPPRLPRPRPRPHHQPRP | -0.185 |
| RRIRGRPPRLPRPRPRPCISPRP | -0.273 |
| RRIRWRPPRLPRPRPRPDAAPRP | 2.23 |
| RRIRLRPPRLPRPRPRPRNVPRP | -0.116 |

| Sequence | shrunken log2 fold change |
| --- | --- |
| RRIRHRPPRLPRPRPRPLWAPRP | 0.222 |
| RRIRRRPPRLPRPRPRPWSGPRP | 0.0397 |
| RRIRVRPPRLPRPRPRPMCVPRP | 0.103 |
| RRIRSRPPRLPRPRPRPAVIPRP | -0.593 |
| RRIRTRPPRLPRPRPRPIGAPRP | 0.089 |
| RRIRCRPPRLPRPRPRPDHNPRP | -0.239 |
| RRIRGRPPRLPRPRPRPPEIPRP | 0.851 |
| RRIRVRPPRLPRPRPRPYAWPRP | 0.0346 |
| RRIRCRPPRLPRPRPRPYDLPRP | -0.325 |
| RRIRMRPPRLPRPRPRPKFFPRP | 0.0606 |
| RRIRIRPPRLPRPRPRPHVEPRP | -0.227 |
| RRIRHRPPRLPRPRPRPVHRPRP | -0.143 |
| RRIRSRPPRLPRPRPRPCLGPRP | -0.127 |
| RRIRRRPPRLPRPRPRPCRKPRP | -0.444 |
| RRIRRRPPRLPRPRPRPTASPRP | 0.146 |
| RRIRKRPPRLPRPRPRPRMRPRP | 1.06 |
| RRIRDRPPRLPRPRPRPDCNPRP | 0.685 |
| RRIRNRPPRLPRPRPRPLSHPRP | -0.596 |
| RRIRNRPPRLPRPRPRPWRLPRP | 0.0636 |
| RRIRDRPPRLPRPRPRPTWKPRP | 0.0856 |
